# Measured values from patent publication US20120122128A1.
# How the values were obtained:
# [1] = target: T1, SNAP-25 peptide comprising amino acids 134-197 of SEQ ID NO: 5 (human); assay: SPR, comparison of the Kd values of Table 9
# [2] = target: T1, SNAP-25 peptide comprising amino acids …; assay: SPR (BIAcore 3000), peptide amine-coupled to CM5 chip, antibody as analyte, 1:1 fit, second independent run on another chip
# [3] = target: T1, SNAP-25 peptide comprising amino acids …; assay: SPR (BIAcore 3000), peptide amine-coupled to CM5 chip, antibody as analyte, 1:1 fit, first of two runs
# [4] = target: T1, SNAP-25 peptide comprising amino acids …; assay: SPR, comparison of the KD values of Table 9
# [5] = target: T1, SNAP-25 peptide comprising amino acids …; assay: SPR (BIAcore 3000), peptide amine-coupled to CM5 chip, antibody as analyte, 1:1 fit
# [6] = target: SNAP-25 peptide comprising amino acids 134-197 of SEQ ID NO: 5 (human); assay: as above; remark: listed apart in the source
binder,measurement,setting,value
α-SNAP-25 monoclonal antibody 2E2A6 (antibody) chain 1: QVQLQQSDAELVKPGASVKISCRASGYTFTDHSIHWVKQQPGQGLEWIGYIFPGNGNIEYNDKFKGKATLTADKSSGTAYMQLNSLTSEDSAVYFCKRMGYWGQGTSVTVSS chain 2: DVLMTQTPLTLSVTIGQPASISCKSSQSLLYTNGKTYLTWLFQRPGQSPKRLIYLVSELDSGVPDRFSGSGSGTDFTLEITRVEAEDLGVYYCLQSAHFPFTFGSGTKLEIKR,fold slower off rate against MC-6050 and MC-6053,[1],> 1 fold
same,Kd,[2],0.405 nM
same,koff,[2],6.74e-05 s⁻¹
same,kon,[2],166000 M⁻¹ s⁻¹
same,Kd,[3],0.09 nM
same,koff,[3],0.000153 s⁻¹
same,kon,[3],1.7e+06 M⁻¹ s⁻¹
"α-SNAP-25 monoclonal antibody 1D3B8 (antibody, V domains shown) VH: VKLQESGAELVKPGASVKISCKASGYIFTDHALHWVRQKPEQGLEWIGYIFPGNGNIEYNEKFKGKATLTADKSSSTAYMQLNSLTSGDSAMYFCKKMDYWGQGTTVTVSS VL: DVLMTQTPLSLPVSLGDQASISCRSSQSIVHSNGNTYLEWYLQKPGQSPKLLIYKVSNRFSGVPDRFSGSGSGTDFTLKISRVEAEDLGVYYCFQGSHVPPTFGAGTKLELKR",fold difference of equilibrium disassociation constant against MC-6050 and MC-6053,[4],10 fold
same,Kd,[5],0.05 nM
same,koff,[5],5.78e-05 s⁻¹
same,kon,[5],1.06e+06 M⁻¹ s⁻¹
"α-SNAP-25 monoclonal antibody 2C9B10 (antibody, V domains shown) VH: VKLQESGAELVKPGASVKISCKASGYTFTDHSIHWVKQKPGQGLEWIGYLFPGNGNFEYNEKFKGKATLTADKSSSTAYMHLNSLTSEDSAVYFCKKMDYWGQGTTVTVSS VL: DIQMTQSPASLSASVGETVTITCRTTENIYSYFVWSQQRQGKSPQLRVYNAKSLAEGVPSSFNVSVSGTQFSLKINSLQPEDFGTYHCQHHYGTPYTFGGGTRLEIRR",Kd,[6],27.1 nM
same,koff,[6],0.000311 s⁻¹
same,kon,[6],11500 M⁻¹ s⁻¹
"α-SNAP-25 monoclonal antibody 3C1A5 (antibody, V domains shown) VH: VKLQESGAELVKPGASVKISCKASGYTFTDHSIHWVKQKPGQGLEWIGYLFPGNGNFEYNEKFKGKATLTADKSSSTVYMYLNSLTSEDSAVYFCKRMGYWGQGTTVTVSS VL: DIKMTQSPSSMYASLGERVTITCKASQDIKSYLSWYQQKPWKSPKTLIYYATSLADGVPSRFSGSGSGQDYSLTISSLESDDTATYYCLQHGESPFTFGSGTKLEIKR",Kd,[5],1.33 nM
same,koff,[5],0.000288 s⁻¹
same,kon,[5],217000 M⁻¹ s⁻¹
